Experimental data as given in publication doi:10.1101/2025.09.11.675134, “Biodistribution-Driven Discovery Identifies a Glycosidase-Cleavable Linker to Reprogram Radiotheranostics” (bioRxiv, 2025).
Read-outs that look alike come from different tables or passages of the source.

Tests used:
[1] = Ex vivo biodistribution of 225Ac-labeled variants in AR42J tumor-bearing mice; details: athymic nu/nu, mouse, total radioactivity; for tissue uptake at 24 h: 24 h post-injection
Description: Prior to conducting targeted alpha-particle therapy studies using three ^225Ac-labeled variants (Fig. S17) in AR42J xenograft-bearing mice, we first assessed their in vivo pharmacokinetics through ex vivo biodistribution studies at 24 h post-injection (Fig. 5A; Tables S4). […]
For studies involving three variants (DOTA -TATE, DOTA-MVK(ε)-TATE, and DOTA-β-Gal-TATE), AR42J cells (5 × 10^6 cells per mouse) were subcutaneously inoculated into the right shoulder of the mice. Tumors were allowed to grow for 3 weeks, reaching a volume of 100 –200 mm³ before being used in subsequent experiments. […]
All samples […]
were weighed and counted on a gamma counter (2480 Wizard 3, Perkin Elmer Inc., Waltham, MA, USA). Results are presented as percentage of injected activity per gram (%IA/g) and mean values ± standard deviations. […]
Prior to conducting alpha particle therapy, biodistribution studies with 225Ac-labeled DOTA - TATE variants (117 – 163 kBq, 1 μg) were performed at 24 hours and 4 days post -injection in athymic nu/nu mice bearing AR42J tumors (n = 4 – 5). Mice were euthanized by CO 2 asphyxiation, and 10 tissues, including tumors, were collected. All samples were weighed and counted on a gamma counter after equilibration for 12 hours. Results are presented as %IA/g and mean values ± standard deviations.

AR42J xenografts = assay: Dosimetry estimates of 225Ac-labeled variants from biodistribution data; format: in vivo, athymic nu/nu mice; details: mouse, in vivo
Source text: To evaluate the organ-level radiation absorbed dose resulting from different DOTA-TATE derivatives, we calculated the total effective dose per unit of injected activity (Eff Dose/IA, mSv/MBq) for ^225Ac-labeled variants based on biodistribution data in AR42J xenograft-bearing mice (Tables S5).
Estimated absorbed doses for individual organs for ^225Ac- and ^86Y-labeled DOTA-TATE variants were derived from residence times calculated using %IA/g data from biodistribution studies. The time–activity curves incorporated data from both radionuclides to provide complete coverage of early and late time points. Details of the dosimetry methodology, including time–activity curve construction, integration approach, decay assumptions, and conversion to effective dose, are provided in the Supplementary Information.
Dosimetry: The dosimetry was calculated by measuring the residence time per gram for each organ using the percent injected activity per gram (%IA/g) data collected for the biodistribution study. Because two biodistribution data sample groups were collected, one for the 86Y and the other for the 225Ac variant of the three DOTA-TATE variants (DOTA-TATE, DOTA-MVK(ε)- TATE, and DOTA-β-Gal-TATE) the %IA/g time activity curves (TAC) of the 86Y variant were merged with the 225Ac TACs. This was possible because of the difference in half lives between 86Y and 225Ac being 14.74 and 237.8 hours respectively setting the measurement time points to be 1, 4 and 24 hours for the 86Y ligands and 24, 96 hours for 225Ac. The full time activity curve is thus made up of the 1 and 4 hour time points of the 86Y %IA/g data points, an average of the common 24 hour time point of the 86Y and 225Ac %IA/g data points and the last 96 hour %IA/g time point of the 225Ac samples. The full 4 time points of 1, 4, 24, and 96 hours making up the […]
from which the residence times were calculated.
The integration of the TAC was performed using trapezoidal interpolation between time points.
The first time point assumed constant activity and a decay curve with the half life of the radioisotope was used to estimate activity beyond 96 hours. The average %IA/g was used for each tissue sample for each time point and the resulting standard deviation of the average was then used as the error estimate per time point to propagate through the residence time calculation.
Using the residence time for each TAC, the dose was calculated by looking up the dose per decay for each alpha, beta (positron and electron from nuclear beta decay) and electron emission listed in the nuclear data sheets provided by the Brookhaven National Laboratory National Nuclear Data Center. Since the 225Ac decays via a complicated decay chain, it is assumed that the dose from the daughters remains in the tissue assuming no biological dissemination once the 225Ac decays breaking the bonds of the DOTA-TATE ligand. The following mean dose per decay were used. For 225Ac, 27.58MeV/Bq-s for alpha emissions, 1.33MeV/Bq-s for beta plus electron emissions. For 86Y, 0.219 MeV/Bq-s for beta and electron emissions. Gamma emissions were ignored because of the small size of the tissue samples have small gamma absorption effects which would contribute negligibly to the dose calculation. Furthermore, dosimetry estimate […]
inter organ activity can be calculated(62).
To estimate the effective dose in mSv/MBq, a radiological factor of 5 was used to multiply the dose calculated from the alpha ionizations while a factor of 1 was used for the beta and electron ionizations to convert from mGy/MBq to mSv/MBq (63, 64).

[2] = Histopathology (H&E) after two-cycle therapy; format: in vivo, athymic nu/nu mice; details: mouse, in vivo
Description: To further assess tissue-level toxicity at the conclusion of the two-cycle therapy study, kidneys, livers, spleens, and tumors from representative mice were collected and evaluated histologically using hematoxylin and eosin (H&E) staining. Microscopic pathology was assessed and recorded in the MHL Pathology Database (Zaphod) according to a standardized five-point grading scale (normal, minimal, mild, moderate, marked). Terminology and criteria for pathological findings were consistent with the INHAND (International Harmonization of Nomenclature and Diagnostic Criteria) guidelines developed by the Society of Toxicologic Pathology.
At the conclusion of the two-cycle therapy study, kidneys, livers, spleens, and tumors from representative mice were collected and processed for histological evaluation using hematoxylin and eosin (H&E) staining. Microscopic pathology was assessed and recorded in the MHL Pathology Database (Zaphod) using a standardized five-point ordinal grading system (normal, minimal, mild, moderate, marked). Terminology and diagnostic criteria were consistent with the International Harmonization of Nomenclature and Diagnostic Criteria (INHAND) guidelines established by the Society of Toxicologic Pathology (https://www.toxpath.org/inhand.asp)([57]).

Compound: C[C@@H](O)[C@H](NC(=O)[C@@H]1CSSC[C@H](NC(=O)[C@@H](Cc2ccccc2)NC(=O)CN2CCN(CC(=O)O)CCN(CC(=O)O)CCN(CC(=O)O)CC2)C(=O)N[C@@H](Cc2ccc(O)cc2)C(=O)N[C@H](Cc2c[nH]c3ccccc23)C(=O)N[C@@H](CCCCN)C(=O)N[C@@H]([C@@H](C)O)C(=O)N1)C(=O)O [^225Ac-DOTA-TATE, metal not drawn, reference compound]
- tissue uptake at 24 h ([1]; iv, 1 ug, 225Ac-labeled, AR42J tumor-bearing mice, ex vivo, mean (± SD), n = 4–5, read-out: Kidney uptake): 4.19 ± 0.28 %ID/g
- tissue uptake at 24 h ([1]; iv, 1 ug, 225Ac-labeled, AR42J tumor-bearing mice, ex vivo, mean (± SD), n = 4–5, read-out: Liver uptake): 0.29 ± 0.02 %ID/g
- tissue uptake at 24 h ([1]; iv, 1 ug, 225Ac-labeled, AR42J tumor-bearing mice, ex vivo, mean (± SD), n = 4–5, read-out: Tumor uptake): 3.4 ± 0.34 %ID/g
- tissue uptake at 24 h ([1]; iv, 1 ug, 225Ac-labeled, AR42J tumor-bearing mice, ex vivo, mean, n = 4–5, read-out: Femur uptake): 0.2 %ID/g
- tissue uptake at 24 h ([1]; iv, 1 ug, 225Ac-labeled, AR42J tumor-bearing mice, ex vivo, mean, n = 4–5, read-out: Intestine uptake): 0.09 %ID/g
- tissue uptake at 24 h ([1]; iv, 1 ug, 225Ac-labeled, AR42J tumor-bearing mice, ex vivo, mean, n = 4–5, read-out: Spleen uptake): 0.16 %ID/g
- tissue uptake at 24 h ([1]; iv, 1 ug, 225Ac-labeled, AR42J tumor-bearing mice, i.v. 1 μg (117–163 kBq), ex vivo gamma counting, mean, n = 4–5, read-out: Blood uptake): 0.03 %ID/g
- tissue uptake at 96 h ([1]; iv, 1 ug, 225Ac-labeled, AR42J tumor-bearing mice, 4 days post-injection, ex vivo, mean, n = 4–5, read-out: Blood uptake): 0.04 %ID/g
- tissue uptake at 96 h ([1]; iv, 1 ug, 225Ac-labeled, AR42J tumor-bearing mice, 4 days post-injection, ex vivo, mean, n = 4–5, read-out: Femur uptake): 0.41 %ID/g
- tissue uptake at 96 h ([1]; iv, 1 ug, 225Ac-labeled, AR42J tumor-bearing mice, 4 days post-injection, ex vivo, mean, n = 4–5, read-out: Intestine uptake): 0.1 %ID/g
- tissue uptake at 96 h ([1]; iv, 1 ug, 225Ac-labeled, AR42J tumor-bearing mice, 4 days post-injection, ex vivo, mean, n = 4–5, read-out: Kidney uptake): 1.02 %ID/g
- tissue uptake at 96 h ([1]; iv, 1 ug, 225Ac-labeled, AR42J tumor-bearing mice, 4 days post-injection, ex vivo, mean, n = 4–5, read-out: Liver uptake): 0.65 %ID/g
- tissue uptake at 96 h ([1]; iv, 1 ug, 225Ac-labeled, AR42J tumor-bearing mice, 4 days post-injection, ex vivo, mean, n = 4–5, read-out: Muscle uptake): 0.16 %ID/g
- tissue uptake at 96 h ([1]; iv, 1 ug, 225Ac-labeled, AR42J tumor-bearing mice, 4 days post-injection, ex vivo, mean, n = 4–5, read-out: Spleen uptake): 0.27 %ID/g
- tissue uptake at 96 h [1]: 1.14 ± 0.37 %ID/g
- tissue uptake at 24 h ([1]; 225Ac-labeled, AR42J tumor-bearing mice, ex vivo, mean, n = 4–5, read-out: Heart uptake): 0.06 %ID/g
- tissue uptake at 24 h ([1]; 225Ac-labeled, AR42J tumor-bearing mice, ex vivo, mean, n = 4–5, read-out: Lung uptake): 0.14 %ID/g
- tissue uptake at 24 h ([1]; 225Ac-labeled, AR42J tumor-bearing mice, ex vivo, mean, n = 4–5, read-out: Muscle uptake): 0.1 %ID/g
- tissue uptake at 96 h ([1]; 225Ac-labeled, AR42J tumor-bearing mice, 4 days post-injection, ex vivo, mean, n = 4–5, read-out: Heart uptake): 0.14 %ID/g
- tissue uptake at 96 h ([1]; 225Ac-labeled, AR42J tumor-bearing mice, 4 days post-injection, ex vivo, mean, n = 4–5, read-out: Lung uptake): 0.16 %ID/g
- Absorbed dose to kidney (AR42J xenografts): 16.2 Gy
- Absorbed dose to tumor (AR42J xenografts): 13.2 Gy
- Total effective dose per injected activity, Blood (AR42J xenografts): 4.00E+03 mSv/MBq
- Total effective dose per injected activity, Femur (AR42J xenografts): 5.86E+04 mSv/MBq
- Total effective dose per injected activity, Heart (AR42J xenografts): 1.42E+04 mSv/MBq
- Total effective dose per injected activity, Intestine (AR42J xenografts): 3.04E+04 mSv/MBq
- Total effective dose per injected activity, Kidney (AR42J xenografts): 5.27 × 10^5 mSv/MBq
- Total effective dose per injected activity, Liver (AR42J xenografts): 6.47E+04 mSv/MBq
- Total effective dose per injected activity, Lung (AR42J xenografts): 3.85E+04 mSv/MBq
- Total effective dose per injected activity, Muscle (AR42J xenografts): 9.33E+03 mSv/MBq
- Total effective dose per injected activity, Spleen (AR42J xenografts): 3.41E+04 mSv/MBq
- Total effective dose per injected activity, Tumor (AR42J xenografts): 4.30 × 10^5 mSv/MBq
- Glomerulopathy, percentage of mice with grade 0 [2]: 17%
- Glomerulopathy, percentage of mice with grade 1+ [2]: 33%
- Glomerulopathy, percentage of mice with grade 2+ [2]: 17%
- Glomerulopathy, percentage of mice with grade 3+ [2]: 33%
- Mice with mild, focal hepatocyte injury [2]: 1 of 6
- Tubular damage, percentage of mice with grade 2+ [2]: 50%
- Tubular damage, percentage of mice with grade 3+ [2]: 33%
- Tubular damage, percentage of mice with grade 4+ [2]: 17%
